Paper PMC11697048, “Ce6-GFFY is a novel photosensitizer for colorectal cancer therapy” (Genes & Diseases, 2024)

Key:
CT26 cells [1] = experiment: ROS detection with DCFH-DA; format: cell-based, mouse; conditions: CT26, 5 μM, 1 h, 660 nm laser 1 min 0.02 W/cm^2, confocal laser scanning microscopy
Description: (§1) For cell endocytosis detection, CT26 and HCT116 cells were treated with Ce6 molecules (5 μM) or Ce6-GFFY (5 μM) at 37 °C for 1 h. For ROS detection, cells were treated with Ce6 molecules (5 μM), GFFY peptide (5 μM), or Ce6-GFFY (5 μM) at 37 °C for 1 h and then treated with or without laser irradiation for 1 min (660 nm, 0.02 W/cm^2). Afterward, the cells were collected and stained with DCFH-DA (1:5000) at 37 °C for 20 min. For cell death analysis, cells were treated with Ce6 molecules, GFFY peptide, or Ce6-GFFY (CT26, 10 μM; HCT116, 5 μM) at 37 °C for 1 h and then treated with or without laser irradiation for 1 min (660 nm, 0.02 W/cm^2). After incubation at 37 °C for 24 h, the cells were collected and stained with propidium iodide (1:100) and annexin V-FITC (1:200). For examination of CRT expression, cells were treated with Ce6 molecules, GFFY peptide, or Ce6-GFFY (CT26, 10 μM; HCT116, 5 μM) at 37 °C for 1 h and then treated with or without laser irradiation for 1 min (660 nm, 0.02 W/cm^2). After incubation at 37 °C for 8 h, the cells were collected and blocked with 5% bull serum albumin for 10 min and then incubated with a primary anti-calreticulin antibody (#ab92516, Abcam), followed by the incubation of an Alexa Fluor 488-conjugated secondary antibody (#406416, BioLegend). […]

HCT116 cells [2] = experiment: ROS detection with DCFH-DA; format: cell-based, human; conditions: HCT116, 5 μM, 1 h, 660 nm laser 1 min 0.02 W/cm^2, confocal laser scanning microscopy
Description: as §1

[3] = In vivo imaging, kinetics of Ce6 fluorescence in mice; parameters: species or system mouse
Description: (§2) For in vivo imaging, Ce6-GFFY (5 mg/kg) and Ce6 molecules (2.5 mg/kg) were injected into mice burdened with or without xenograft tumors through the tail vein (100 μL/mouse), and the fluorescence intensity of mice or main tissues such as brain, heart, liver, spleen, lung, kidney, intestine, and stomach was detected and analyzed with an IVIS spectrum imaging system (PerkinElmer, MA, USA). All animal experiments were approved by The Institutional Animal Care and Use Committee at Sun Yat-sen Cancer Center.

CT26 cells [4] = experiment: Cell endocytosis (uptake) detection by Ce6 fluorescence; format: cell-based, mouse; conditions: CT26, 5 μM, 37 °C, 1 h
Description: as §1

CT26-derived tumors = experiment: In vivo imaging, tumor targeting in mice bearing CT26-derived tumors; parameters: species or system mouse; conditions: tail vein, 5 mg/kg, n = 3
Description: as §2

CT26 cells [5] = experiment: CCK-8 assay; format: cell-based, mouse; conditions: drug 1 h, 660 nm laser 1 min at 0.02 W/cm^2, then 24 h at 37 °C, read-out: IC50 (proliferation)
Description: (§3) Cell viability was measured using a CCK-8 cell counting kit (Beyotime Biotechnology, Shanghai, China). 7000 cells were seeded in 96-well plates and treated with drugs at various concentrations for 1 h and then treated with or without laser irradiation for 1 min (660 nm, 0.02 W/cm^2), followed by incubation at 37 °C for 24 h. After the addition of the CCK-8 reagent, the cells were continually incubated at 37 °C for 3 h before being detected by a microplate reader (TECAN, Victoria, Austria).

HCT116 cells [6] = experiment: Cell endocytosis (uptake) detection by Ce6 fluorescence; format: cell-based, human; conditions: HCT116, 5 μM, 37 °C, 1 h
Description: as §1

[7] = Toxicity evaluation in mice (blood routine, liver and kidney function, H&E pathology); format: in vivo, mouse; conditions: 5 mg/kg i.v. plus laser irradiation
Description: Four-to-six-week-old BALB/c mice and BALB/c nude mice were purchased from Guangdong Medical Laboratory Animal Center (Guangzhou, China). All mice were maintained under standard conditions and treated according to institutional guidelines for animal care. For primary tumor therapy, 2 × 10^5 CT26 cells were suspended in a 1:1 mixture of PBS and matrigel and subcutaneously injected into the flanks of the mice. When the volume of tumors reached 70 mm^3, the mice were randomized into treatment and control groups. The treatment groups received tail intravenous injections of GFFY (2.5 mg/kg), Ce6 (2.5 mg/kg), or Ce6-GFFY (5 mg/kg), and the control group received PBS treatment, both groups were treated with once 660 nm laser irradiation for 8 min (1 min on, 1 min off; 4 cycles) on the tumor region at a power of 0.2 W/cm^2. Tumor volume and mouse body weight were recorded every three days, and tumor tissues were collected and weighed at the end of treatment. Main organs such as the heart, liver, spleen, lung, and kidney were collected for pathological analysis and the blood was collected for blood routine examination.

HCT116 cells [8] = experiment: CCK-8 assay; format: cell-based, human; conditions: drug 1 h, 660 nm laser 1 min at 0.02 W/cm^2, then 24 h at 37 °C, read-out: IC50 (proliferation)
Description: as §3

[9] = confocal laser scanning microscopy, versus Ce6 molecules
[10] = flow cytometry, Ce6 fluorescence

Compound | ROS production upon 660 nm laser irradiation (CT26 cells [1]) | ROS production upon 660 nm laser irradiation (HCT116 cells [2]) | time after injection by which almost cleared ([3]; mice, tail vein injection, 2.5 mg/kg, living imaging of Ce6 luminescence, n = 5) | half-life in mice ([3]; mice, tail vein injection, Ce6-GFFY 5 mg/kg, Ce6 2.5 mg/kg, from Ce6 luminescence changes, IVIS imaging, n = 5) | cellular Ce6 fluorescence (CT26 cells [4]; [9]) | cellular uptake (Ce6 positive cells) (CT26 cells [4]; [10]) | accumulation in tumor regions after injection (CT26-derived tumors; living imaging) | distribution in tumor and normal tissues after 24 h (CT26-derived tumors; organs and tumors imaged at 24 h) | IC50 (CT26 cells [5]) | cellular Ce6 fluorescence (HCT116 cells [6]; [9]) | cellular uptake (Ce6 positive cells) (HCT116 cells [6]; [10]) | hepatic and renal function (AST, ALT, BUN) ([7]; end of treatment, n = 5) | murine blood routine analysis (inflammatory responses) ([7]; end of treatment, n = 5) | histopathological analysis of heart, liver, spleen, lung, and kidney (H&E) ([7]; n = 4) | retention time in the mice ([3]; mouse, in vivo, 5 mg/kg) | IC50 (HCT116 cells [8])
C=Cc1c(C)c2cc3nc(c(CC(=O)O)c4[nH]c(cc5nc(cc1[nH]2)C(C)=C5CC)c(C)c4C(=O)O)[C@@H](CCC(=O)O)[C@@H]3C [Ce6, chlorin e6] | minimal | minimal | ≤ 12 h | 3 h |  |  |  |  |  |  |  |  |  |  |  | 
C=Cc1c(C)c2cc3nc(c(CC(=O)NCC(=O)N[C@@H](Cc4ccccc4)C(=O)N[C@@H](Cc4ccccc4)C(=O)N[C@@H](Cc4ccc(O)cc4)C(=O)O)c4[nH]c(cc5nc(cc1[nH]2)C(C)=C5CC)c(C)c4C(=O)O)[C@@H](CCC(=O)O)[C@@H]3C [Ce6-GFFY] |  |  |  |  | noticeable aggregation of Ce6 fluorescence | much higher than Ce6 molecules | accumulated rapidly in the tumor regions | stable aggregation in tumor tissues | 6.27 µM | noticeable aggregation of Ce6 fluorescence | much higher than Ce6 molecules | did not exert an impact on the hepatic and renal function | did not elicit any significant inflammatory responses | no apparent toxicity | over 48 h | 5.3 µM
